Experimental data reported in US20250264455.

Molecular target: T1, P2-TmEnc^BC2-Tag
T1 chain: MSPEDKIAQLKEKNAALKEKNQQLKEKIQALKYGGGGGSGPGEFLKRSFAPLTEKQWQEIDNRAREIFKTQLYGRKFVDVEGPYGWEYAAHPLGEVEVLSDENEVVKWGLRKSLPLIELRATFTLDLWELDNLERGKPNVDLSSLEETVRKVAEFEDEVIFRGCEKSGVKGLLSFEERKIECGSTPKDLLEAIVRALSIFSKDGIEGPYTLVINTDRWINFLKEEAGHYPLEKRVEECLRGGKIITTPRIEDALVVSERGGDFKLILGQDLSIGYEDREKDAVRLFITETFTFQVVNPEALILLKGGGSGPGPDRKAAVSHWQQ

B1: BmTyr-P1 (protein)
chain: MGHSNKYRVRKNVLHLTDTEKRDFVRTVLILKEKGIYDRYIAWHGAAGKFHTPPGSDRNAAHMSSAFLPWHREYLLRFERDLQSINPEVTLPYWEWETDAQMQDPSQSQIWSADFMGGNGNPIKDFIVDTGPFAAGRWTTIDEQGNPSGGLKRNFGATKEAPTLPTRDDVLNALKITQYDTPPWDMTSQNSFRNQLEGFINGPQLHNRVHRWVGGQMGVVPTAPNDPVFFLHHANVDRIWAVWQIIHRNQNYQPMKNGPFGQNFRDPMYPWNTTPEDVMNHRKLGYVYDIELRKSKRSSGGGGSGGGGSTGSPEDEIQALEEENAQLEQENAALEEEIAQLEYGSGSETPGTSESATPESAISHGFPPEVEEQAAGTLPMSCAQESGMDRHPAACASARINV
- melanin formation on CN-PAGE: melanin formation could be demonstrated by color formation on CN-PAGE
- melanin formation on clear native PAGE: The dark high molecular weight bands at 1.0 MDa represent melanin-loaded TmEnc nanospheres
